The results in this text go back to PMC8244287 (Current Research in Structural Biology, 2021).

This data set concerns the molecule itself. Nature of the data set: SDS-PAGE.

B1: BbZIP, zinc transporter from Bordetella bronchiseptica, full-length, N-terminal His6 (natural protein, UniProt A0A0H3LM39 1-309, looked up)
chain: MNQPSSLAADLRGAWHAQAQSHPLITLGLAASAAGVVLLLVAGIVNALTGENRVHVGYAVLGGAAGFAATALGALMALGLRAISARTQDAMLGFAAGMMLAASAFSLILPGLDAAGTIVGPGPAAAAVVALGLGLGVLLMLGLDYFTPHEHERTGHQGPEAARVNRVWLFVLTIILHNLPEGMAIGVSFATGDLRIGLPLTSAIAIQDVPEGLAVALALRAVGLPIGRAVLVAVASGLMEPLGALVGVGISSGFALAYPISMGLAAGAMIFVVSHEVIPETHRNGHETTATVGLMAGFALMMFLDTALG
By stoichiometry N is commonly meant a count of units in the complex or per binding partner. B1: the “stoichiometry N” value stood at 2.
